Assay results as given in patent publication US20250154283A1 (published 2025).

T1: biotinylated human VWF cysteine knot (CK) domain construct (human, biotin on the in vitro biotinylation tag (residue not stated); one N-glycan)
T1 construct: Disulfide-linked homodimer; also called biotinylated human VWF CK domain; human VWF CK domain construct
T1 chain: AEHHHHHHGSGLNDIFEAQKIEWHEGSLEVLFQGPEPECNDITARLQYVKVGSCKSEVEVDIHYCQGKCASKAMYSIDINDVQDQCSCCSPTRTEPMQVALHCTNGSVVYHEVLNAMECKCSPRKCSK

B1: Lib1_P1_A6_scFv (scFv, not shown: small tags and cut ends)
scFv: QVQLVQSGAEVKKPGASVKVSCKVSGSTFSNYAIHWVRQAPGKGLEWMGGIVPLSGTAIYAQKFQGRVTMTEDTSTDTAYMELSSLKSEDTAVYYCARDQGESSGWYAIYYGMDVWGQGTTVTVSSSGGSTITSYNVYYTKLSSSGTDIQMTQSPSSVSASVGDRVTITCRASQGIGTWLAWYQQKPGKAPKLLIYGSSSRASGVPSRFSGSGSGTDFTLTISSLQPEDFANYYCQQSYGKPTFGGGTKVEIK
B2: 5802_Lib4_scFv (scFv, not shown: small tags and cut ends)
scFv: QVQLQESGPGLVKPSQTLSLTCTVSGYSISSGDYHWSWIRQPPGKGLEWIGYINPSGSADYNPSLKSRVTMSVDTSKNQFSLKVNSVTAADTAVYYCARDGVAATYYYYYGMDVWGQGTTVTVSSSGGSTITSYNVYYTKLSSSGTEIVMTQSPATLSLSPGERATLSCRASHSIGSNLAWYQQKPGQAPRLLIYDATTRATGIPARFSGSGSGTDFTLTISSLEPEDFAVYYCQQAYSFPLTFGGGTKVEIK
B3: 76_Lib4_scFv (scFv, not shown: small tags and cut ends)
scFv: QVQLQESGPGLVKPSQTLSLTCTVSGVSISNHYWSWIRQPPGKGLEWIGYIDESGSTDYNPSLKSRVTMSVDTSKNQFSLKVNSVTAADTAVYYCARVSWGYYAMDVWGQGTTVTVSSSGGSTITSYNVYYTKLSSSGTEIVMTQSPATLSLSPGERATLSCRASQGVSGHLAWYQQKPGQAPRLLIYETSKRATGIPARFSGSGSGTDFTLTISSLEPEDFAVYYCQQYNDYPLGFGGGTKVEIK
B4: 4761_Lib8_scFv (scFv, not shown: small tags and cut ends)
scFv: EVQLVESGGGLVQPGRSLRLSCAASGFTFSSDTMHWVRQAPGKGLEWVSAISSSGDHTDYADSVEGRFTISRDNAKNSLYLQMNSLRAEDTAVYYCAREGLRGYYFDYWGQGTLVTVSSSGGSTITSYNVYYTKLSSSGTDIQMTQSPSSLSASVGDRVTITCRASQGISGHLAWYQQKPGKAPKLLIYAASALQSGVPSRFSGSGSGTDFTLTISSLQPEDVATYYCQQSHSLPWTFGGGTKVEIK
B5: 4675_Lib4_scFv (scFv, not shown: small tags and cut ends)
scFv: QVQLQESGPGLVKPSQTLSLTCTVSGFSLTSHPEGVNWIRQPPGKGLEWIGYIAHSGTTDYNPSLKSRVTMSVDTSKNQFSLKVNSVTAADTAVYYCARAYGDSDAFDIWGQGTMVTVSSSGGSTITSYNVYYTKLSSSGTEIVMTQSPATLSLSPGERATLSCRASQSIGRNLAWYQQKPGQAPRLLIYGASKRVTGIPARFSGSGSGTDFTLTISSLEPEDFAVYYCQQYSTWPTFGGGTKVEIK
B6: 15244_Lib8_scFv (scFv, not shown: small tags and cut ends)
scFv: EVQLVESGGGLVQPGRSLRLSCAASGFTFADYDMHWVRQAPGKGLEWVSATSSHGVTTDYADSVEGRFTISRDNAKNSLYLQMNSLRAEDTAVYYCARGAWSGIAARQYIDYWGQGTLVTVSSSGGSTITSYNVYYTKLSSSGTDIQMTQSPSSLSASVGDRVTITCRASQTIGYWLAWYQQKPGKAPKLLIYDASVPESGVPSRFSGSGSGTDFTLTISSLQPEDVATYYCQQSYSYPLTFGGGTKVEIK
B7: 69_Lib8_scFv (scFv, not shown: small tags and cut ends)
scFv: EVQLVESGGGLVQPGRSLRLSCAASAFTFSNYDMHWVRQAPGKGLEWVSAISGSGDTSDYADSVEGRFTISRDNAKNSLYLQMNSLRAEDTAVYYCVRASWYGTFFDYWGQGTLVTVSSSGGSTITSYNVYYTKLSSSGTDIQMTQSPSSLSASVGDRVTITCRASQSVSGWLAWYQQKPGKAPKLLIYGTSTLQSGVPSRFSGSGSGTDFTLTISSLQPEDVATYYCQQSYSAPYTFGGGTKVEIK
B8: 7046_Lib8_scFv (scFv, not shown: small tags and cut ends)
scFv: EVQLVESGGGLVQPGRSLRLSCAASGFNFHNYDMHWVRQAPGKGLEWVSAISGSGYTADYADSVEGRFTISRDNAKNSLYLQMNSLRAEDTAVYYCAKSHSSGWSSAFDIWGQGTMVTVSSSGGSTITSYNVYYTKLSSSGTDIQMTQSPSSLSASVGDRVTITCRASQTIGYWLAWYQQKPGKAPKLLIYDATNLATGVPSRFSGSGSGTDFTLTISSLQPEDVATYYCQHYNPYSQVTFGGGTKVEIK
B9: Lib1_P1_F10_scFv (scFv, not shown: small tags and cut ends)
scFv: QVQLVQSGAEVKKPGASVKVSCKVSGYTFSSSGIHWVRQAPGKGLEWMGGIFPNFGTAIYAQKFQGRVTMTEDTSTDTAYMELSSLKSEDTAVYYCARESDFWSGSFTNWGQGTLVTVSSSGGSTITSYNVYYTKLSSSGTDIQMTQSPSSVSASVGDRVTITCRASRSIGNWLAWYQQKPGKAPKLLIYDAFNRASGVPSRFSGSGSGTDFTLTISSLQPEDFANYYCQQSYSTLPRYSFGGGTKVEIK
B10: 1675_Lib1_scFv (scFv, not shown: small tags and cut ends)
scFv: QVQLVQSGAEVKKPGASVKVSCKVSGVTLTSSAISWVRQAPGKGLEWMGGITPIFGTPIYAQKFQGRVTMTEDTSTDTAYMELSSLKSEDTAVYYCATDYGYPFWAFDIWGQGTMVTVSSSGGSTITSYNVYYTKLSSSGTDIQMTQSPSSVSASVGDRVTITCRASQGIYSALAWYQQKPGKAPKLLIYESSKRPSGVPSRFSGSGSGTDFTLTISSLQPEDFANYYCEQYASSPPTFGGGTKVEIK
B11: Lib4_P2_D1_scFv (scFv, not shown: small tags and cut ends)
scFv: QVQLVQSGAEVKKPGASVKVSCKVSGDTLSNYAIHWVRQAPGKGLEWMGGINPNAGTTIYAQKFQGRVTMTEDTSTDTAYMELSSLKSEDTAVYYCARDSSSWCPVGYYYYYMDVWGKGTTVTVSSSGGSTITSYNVYYTKLSSSGTDIQMTQSPSSVSASVGDRVTITCRASQSIGDFLAWYQQKPGKAPKLLIYDASHLQTGVPSRFSGSGSGTDFTLTISSLQPEDFANYYCQQTSTIPPTFGGGTKVEIK
B12: Lib1_P1_A5_scFv (scFv, not shown: small tags and cut ends)
scFv: QVQLVQSGAEVKKPGASVKVSCKVSGDTLSNYAIHWVRQAPGKGLEWMGGINPNAGTTIYAQKFQGRVTMTEDTSTDTAYMELSSLKSEDTAVYYCARDSSSWCPVGYYYYYMDVWGKGTTVTVSSSGGSTITSYNVYYTKLSSSGTDIQMTQSPSSVSASVGDRVTITCRASQSIGDFLAWYQQKPGKAPKLLIYDASHLQTGVPSRFSGSGSGTDFTLTISSLQPEDFANYYCQQTSTIPPTFGGGTKVEIK
B13: 5662_Lib8_scFv (scFv, not shown: small tags and cut ends)
scFv: EVQLVESGGGLVQPGRSLRLSCAASGFNFHNYDMHWVRQAPGKGLEWVSAIDISGQSTDYADSVEGRFTISRDNAKNSLYLQMNSLRAEDTAVYYCAREGWYGGVFDYWGQGTLVTVSSSGGSTITSYNVYYTKLSSSGTDIQMTQSPSSLSASVGDRVTITCRASQDIANWLAWYQQKPGKAPKLLIYGASESGVGVPSRFSGSGSGTDFTLTISSLQPEDVATYYCQQSLTMKTFGGGTKVEIK
B14: 9312_Lib8_scFv (scFv, not shown: small tags and cut ends)
scFv: EVQLVESGGGLVQPGRSLRLSCAASGFSLSTYDMHWVRQAPGKGLEWVSAISSSGDTRDYADSVEGRFTISRDNAKNSLYLQMNSLRAEDTAVYYCARAFWGGDAFDIWGQGTMVTVSSSGGSTITSYNVYYTKLSSSGTDIQMTQSPSSLSASVGDRVTITCRASQTIGYWLAWYQQKPGKAPKLLIYGASTLEGGVPSRFSGSGSGTDFTLTISSLQPEDVATYYCQHSYSAPPTFGGGTKVEIK
B15: Lib4_P2_A11_scFv (scFv, not shown: small tags and cut ends)
scFv: QVQLQESGPGLVKPSQTLSLTCTVSGVTFSSYGWSWIRQPPGKGLEWIGYVDTSGSTDYNPSLKSRVTMSVDTSKNQFSLKVNSVTAADTAVYYCARTTYYYDSSGFARGWFDPWGQGTLVTVSSSGGSTITSYNVYYTKLSSSGTEIVMTQSPATLSLSPGERATLSCRASRSISTNLAWYQRKPGQAPRLLIYDTSNRAPGIPARFSGSGSGTDFTLTISSLEPEDFAVYYCLQYDVSPYTFGGGTKVEIK
notes: also called Lib4_P2_All

Target: T1, biotinylated human VWF cysteine knot …
Assay: SPR, scFv captured on anti-SV5, pH 7.4
Description: Briefly, a sensor chip was activated and coupled with an anti-SV5 mouse monoclonal antibody using amine coupling. The soluble scFvs in crude yeast supernatants were printed on the anti-SV5 lawn. […] From the measured association (kₒₙ) and dissociation (koff) rate constants, an apparent equilibrium dissociation constant (Kd=koff/kₒₙ) was estimated. Due to the dimeric state of the CK construct and consequent possibility for simultaneous binding of captured scFv to both monomers in the CK dimer, the SPR setup was expected to overestimate the binding affinity.

Binding result, binds:
B1
B2
B3
B4
B5
B6
B7
B8
B9
B10
B11
B12
B13
B14
B15
